Laboratory results published in article PMC4331662.

Target: D. melanogaster cellular repressor of E1A-stimulated genes (dCREG), residues 24-212, produced in E. coli from pFO4/dCREG (D. melanogaster)
Assay: SEC; Superdex 75 HR 10/30, 50 mM sodium phosphate buffer pH 7.0, 150 mM NaCl, flow 0.5 ml/min, absorbance at 280 nm

stoichiometry N: 2
Substance: D. melanogaster cellular repressor of E1A-stimulated genes (dCREG), residues 24-212, produced in E. coli from pFO4/dCREG (natural protein)
